Data set [1] has as its target T1, Ku70/Ku80 heterodimer (Ku antigen) (Mus musculus, UniProt P23475;P27641 P23475:2-608,P27641:1-732). Put plainly: competition; no significant competition at 0.1-0.4 ug. Here is the method:
(§1) To verify the binding specificity of the Ku protein to ISS-ODN, inhibition studies were performed using cold ss or ds ISS or mutated (M, i.e., control) ODNs. Ten μg of fraction 20 from the affinity column were incubated with [³²P]-labeled ISS-ODN in the presence of unlabeled (0.1, 0.2 and 0.4 μg, respectively) ss-ISS-ODN (lanes 3-5), ds-ISS-ODN (lanes 7-9), ss-M-ODN (lanes 11-13) or ds-M-ODN (lanes 15-17).

Data set [2] deals with T1, Ku70/Ku80 heterodimer (Ku antigen). Put plainly: competition; unlabeled 0.1-0.4 ug displaces labeled ds-ISS-ODN. Here is the method:
as §1

These results are taken from patent publication US20030176373, “Agents that modulate DNA-PK activity and methods of use thereof” (published 2003).

T1 sequence (P23475 2-608, chain 1 of 2): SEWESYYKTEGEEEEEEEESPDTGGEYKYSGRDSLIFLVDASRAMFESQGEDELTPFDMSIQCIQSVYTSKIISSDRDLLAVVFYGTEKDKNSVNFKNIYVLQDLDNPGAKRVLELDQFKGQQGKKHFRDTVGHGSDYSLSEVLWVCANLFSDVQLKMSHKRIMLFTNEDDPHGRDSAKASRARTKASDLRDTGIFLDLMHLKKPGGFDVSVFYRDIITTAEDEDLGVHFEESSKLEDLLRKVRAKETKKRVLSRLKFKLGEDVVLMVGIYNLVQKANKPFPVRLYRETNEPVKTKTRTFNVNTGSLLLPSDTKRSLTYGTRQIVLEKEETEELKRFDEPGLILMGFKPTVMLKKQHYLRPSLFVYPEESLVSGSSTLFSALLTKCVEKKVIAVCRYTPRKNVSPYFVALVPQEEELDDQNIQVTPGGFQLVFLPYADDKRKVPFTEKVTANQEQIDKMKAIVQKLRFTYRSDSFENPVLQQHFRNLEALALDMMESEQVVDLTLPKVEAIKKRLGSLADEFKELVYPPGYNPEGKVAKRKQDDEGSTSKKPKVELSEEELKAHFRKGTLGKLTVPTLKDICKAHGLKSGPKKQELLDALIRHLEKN
T1 sequence (P27641 whole entry, chain 2 of 2): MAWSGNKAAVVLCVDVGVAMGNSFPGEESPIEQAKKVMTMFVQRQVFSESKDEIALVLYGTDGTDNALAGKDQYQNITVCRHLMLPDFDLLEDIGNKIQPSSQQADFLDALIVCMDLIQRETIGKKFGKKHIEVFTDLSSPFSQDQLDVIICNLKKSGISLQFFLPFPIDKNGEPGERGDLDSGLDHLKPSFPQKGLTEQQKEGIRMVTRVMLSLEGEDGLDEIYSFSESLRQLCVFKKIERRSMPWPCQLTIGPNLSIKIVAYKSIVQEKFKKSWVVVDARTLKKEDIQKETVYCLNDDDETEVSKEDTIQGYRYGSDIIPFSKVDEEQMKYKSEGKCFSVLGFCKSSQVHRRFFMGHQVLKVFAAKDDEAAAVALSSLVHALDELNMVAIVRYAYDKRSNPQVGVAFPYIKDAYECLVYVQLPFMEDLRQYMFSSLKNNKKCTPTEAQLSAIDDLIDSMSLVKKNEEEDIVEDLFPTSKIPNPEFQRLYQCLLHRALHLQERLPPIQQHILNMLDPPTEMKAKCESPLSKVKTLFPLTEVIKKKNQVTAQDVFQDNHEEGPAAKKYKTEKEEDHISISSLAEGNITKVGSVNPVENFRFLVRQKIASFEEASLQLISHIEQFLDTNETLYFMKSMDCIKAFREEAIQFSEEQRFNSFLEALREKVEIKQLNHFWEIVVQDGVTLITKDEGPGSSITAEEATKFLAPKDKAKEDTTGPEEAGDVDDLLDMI

B1: ss-M-ODN (ssDNA)
DNA: TGACTGTGAACCTTAGAGATGA
Consider B1, for which the binding result in data set [1] was “no binding”.

B2: ss-ISS-ODN (ssDNA)
DNA: TGACTGTGAACGTTCGAGATGA
On to B2, for which the binding result in data set [2] is on record as “binds”.
